Experimental findings from US20200040084A1 are described below.

Test [1] concerns the target FcγRIIa (secondary ADCP assay, M2c macrophage effector cells) (UniProt P12318). The test is described as follows: cell-based or functional assay.
The target in test [2] is FcγRIIIa (secondary ADCC assays, NK effector cells) (UniProt P08637). The test is described as follows: cell-based or functional assay.
The target of a further test is FcγRIIa (UniProt P12318). Put plainly: SPR, FcγRIIa binding. Background: SPR reads the build-up and loss of mass on a sensor chip optically.
The target of test [3] is FcγRIIIa on Jurkat effector cells (UniProt P08637). Put plainly: cell-based or functional assay.
The target in test [4] is human FcγRIIa-H variant (Histidine at amino acid 131) on Jurkat effector cells (human) (UniProt P12318). Put plainly: cell-based or functional assay.
human FcγRIIa-H variant (Histidine at amino acid 131) on Jurkat effector cells (human), sequence (P12318 34-317, change not shown): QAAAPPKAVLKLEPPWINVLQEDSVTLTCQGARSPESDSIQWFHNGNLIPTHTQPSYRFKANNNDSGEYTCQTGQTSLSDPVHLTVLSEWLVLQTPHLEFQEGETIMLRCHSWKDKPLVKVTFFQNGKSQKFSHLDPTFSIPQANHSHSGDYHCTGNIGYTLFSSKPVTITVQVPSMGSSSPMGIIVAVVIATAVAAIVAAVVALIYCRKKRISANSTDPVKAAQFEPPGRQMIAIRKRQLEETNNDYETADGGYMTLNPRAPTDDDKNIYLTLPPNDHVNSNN

FcγRIIa, sequence (P12318 34-217 limits assumed): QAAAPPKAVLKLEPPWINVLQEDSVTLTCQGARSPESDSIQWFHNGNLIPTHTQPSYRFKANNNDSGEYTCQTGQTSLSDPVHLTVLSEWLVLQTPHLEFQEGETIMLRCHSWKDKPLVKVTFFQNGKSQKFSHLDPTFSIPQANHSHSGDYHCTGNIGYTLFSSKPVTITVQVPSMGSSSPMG
fucosylated anti-PD-L1 IgG1 antibody (avelumab), sequence (HC): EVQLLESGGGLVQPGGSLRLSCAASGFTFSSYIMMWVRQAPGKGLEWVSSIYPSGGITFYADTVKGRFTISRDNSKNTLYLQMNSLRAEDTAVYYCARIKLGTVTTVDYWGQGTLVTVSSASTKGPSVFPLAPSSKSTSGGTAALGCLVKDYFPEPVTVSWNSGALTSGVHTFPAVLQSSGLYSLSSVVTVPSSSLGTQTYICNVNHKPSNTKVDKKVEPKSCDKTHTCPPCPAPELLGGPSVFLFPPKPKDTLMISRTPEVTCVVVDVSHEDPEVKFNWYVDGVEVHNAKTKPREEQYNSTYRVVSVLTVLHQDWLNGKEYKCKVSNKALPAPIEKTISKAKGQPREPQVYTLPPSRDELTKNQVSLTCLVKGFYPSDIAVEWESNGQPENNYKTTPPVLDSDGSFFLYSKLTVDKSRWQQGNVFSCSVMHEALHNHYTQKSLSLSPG
fucosylated anti-PD-L1 IgG1 antibody (avelumab), sequence (LC): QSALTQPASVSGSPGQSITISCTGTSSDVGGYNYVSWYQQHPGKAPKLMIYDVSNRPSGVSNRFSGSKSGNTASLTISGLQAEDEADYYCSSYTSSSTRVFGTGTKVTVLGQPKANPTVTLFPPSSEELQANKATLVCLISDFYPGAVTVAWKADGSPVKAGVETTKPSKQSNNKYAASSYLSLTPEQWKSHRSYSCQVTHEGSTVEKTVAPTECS
afucosylated anti-PD-L1 IgG1 antibody (avelumab), sequence (HC): as the sequence (HC) above
afucosylated anti-PD-L1 IgG1 antibody (avelumab), sequence (LC): as the sequence (LC) above

The substance “afucosylated anti-CD20 IgG1 antibody (obinutuzumab)” displayed an EC50 mean, ADCP in KILR Raji cells (M2c macrophages) in test [1] of 370 pM.

“afucosylated anti-PD-L1 IgG1 antibody (avelumab)”: in test [2], the EC50 mean, ADCC in KILR-A549 cells (NK cells) is 5.4 pM.

As for “afucosylated version of Ipilimumab (antibody)”, in the test with FcγRIIa, the fold enhancement of binding by afucosylation is 10 fold.

In the case of “fucosylated anti-CD20 IgG1 antibody (obinutuzumab)”, the EC50 mean, FcγRIIIa signaling in ADCC reporter assay (Raji targets) in test [3] stood at 7100 pM. Besides, in test [4], the EC50 mean, FcγRIIa signaling in ADCP reporter assay (Raji targets) worked out at 7100 pM. In test [2], this substance displayed an EC50 mean, ADCC in KILR Raji cells (NK cells) of 33 pM. Further, in test [1], the EC50 mean, ADCP in KILR Raji cells (M2c macrophages) was 820 pM.

In the case of “fucosylated anti-PD-L1 IgG1 antibody (avelumab)”, the EC50 mean, FcγRIIIa signaling in ADCC reporter assay (HEK-PD-L1 targets) in test [3] was 49 pM.
